This note sets out measurements from US20030224972A1.

The assay deals with MC1-R. Kind of assay: cell-based or functional assay.

In turn, “Recombinant mouse agouti signal protein (from UniProt Q03288 23-131) (ligand)” displayed an inhibits activation of the MC1-R of 220 pM.
